From article PMC7891125 (Cell, 2021) come the findings set out here.

The test deals with T1, SARS-Cov2 Spike ectodomain for structural analysis (SARS-CoV-2 Wuhan-Hu-1 (MN908947), UniProt P0DTC2, RRAR > GSAS at residues 682-685 | KV > PP at residues 986-987).
T1 construct: also called trimeric spike
Briefly: cryo-EM structure; spike (S ~0.6 μm) with Fab or IgG (1:6 molar ratio), applied to the grid almost immediately. The conditions noted are these: both partners purified.

B1: Strep-tagged Fab88 (Fab, V domains shown)
VH: QLQLQESGPGLVKPSQTLSLTCTVSGGSISSGSYNWTWIRQPAGKGLEWIGRIYNSGSTNYNPSLKSRVTISVDTSKNQLSLKVRSVTAADTAVYYCARHCSGGTCYPKYYYGMDVWGQGTTVTVSS
VL: QSALTQPPSVSEAPRQRVTISCSGSSSNIGNNAVNWYQQFPGKAPKLLIYYDDLLPSGVSDRFSGSKSGTSASLAISGVQSEDEADYYCAAWDDSLNVVVFGGGTKLTVL
notes: source: HEK293T, transient transfection, purified (Strep-Tactin)
A word on the stoichiometry N: it is a count of units in the complex or per binding partner. Regarding B1, the “stoichiometry N” value is 3 Fabs/trimer.

B2: Strep-tagged Fab 158 (Fab, V domains shown)
VH: EVQLLESGGDLIQPGGSLRLSCAASGVTVSSNYMSWVRQAPGKGLEWVSIIYPGGSTFYADSVKGRFTISRDNSKNTLYLQMHSLRAEDTAVYYCARDLGSGDMDVWGKGTTVTVSS
VL: DIVMTQSPSFLSASVGDRVTITCRASQGISSYLAWYQQKPGKAPKLLIQAASTLQSGVPSRFSGSGSGTEFTLTISSLQPEDFATYYCQQLNSYRYTFGQGTKVEIK
notes: also called Fab58 (as printed in the crystallization paragraph); source: HEK293T, transient transfection, purified (Strep-Tactin)
In the case of B2, the binding result was “binds”.

B3: Strep-tagged Fab316 (Fab, V domains shown)
VH: not shown
VL: QAVLTQPPSASGSPGQSVTISCTGTSSDVGGYNYVSWYQQHPGKAPKLMIYEVSKRPSGVPDRFSGSKSGNTASLTVSGLQAEDEADYYCSSYAGSNHWVFGGGTKLTVL
Consider B3, for which the “stoichiometry N” value came out at 3 Fabs/trimer.

B4: Strep-tagged Fab150 (Fab, V domains shown)
VH: QVQLVESGGGLIQPGGSLRLSCAASGVTVSSNYMSWVRQAPGKGLEWVSIIYSGGTTYYADSVKGRFTISRDSSMNTLYLQMNSLRAEDTAVYYCARDLMVYGIDVWGQGTTVTVSS
VL: EIVMTQSPSSLSASVGDRVTITCRASQGISSYLAWYQQKPGKAPKLLIYAASTLQSGVPSRFSGSGSGTDFTLTISSLQPEDFATYYCQQLDSYPPGYTFGQGTKVDIK
notes: as for B1
With B4, the binding result is listed as “binds”.

B5: Fab 253H165L (Fab, V domains shown)
VH: not shown
VL: DIVMTQSPGTLSLSPGERATLSCRASQSVRSSYLAWYQQKPGQAPRLLIYGASRRGTGIPDRFSGSGSGTDFTLTISRLEPEDFAVYYCQQYGSSPWTFGQGTKVEIK
notes: also called chimera 253H165L
As to B5, the binding result is “binds”.
